Results reported in publication PMC6832617.

Key:
[1] = biological target: recombinant His-tagged NS1 protein of West Nile virus strain IS-98-ST1 (NS1^WNV) (West Nile virus, strain IS-98-ST1); test: negative-stain electron microscopy
[2] = biological target: recombinant His-tagged NS1 protein of West Nile virus strain IS-98-ST1 (NS1^WNV) (West Nile virus, strain IS-98-ST1); test: SDS-PAGE without heat denaturation + Western blot

Substance “recombinant His-tagged NS1 protein of West Nile virus strain IS-98-ST1 (NS1^WNV) (natural protein)” has a stoichiometry N [1] of 6 and a stoichiometry N [2] of 2.
